Source: US20250017962A1 (US Dept. of Health and Human Services, published 2025)

T1: GPC1-hFc (UniProt P35052 24-530, limits assumed)
T1 construct: not shown: human Fc tag (hFc)
T1 sequence (looked up): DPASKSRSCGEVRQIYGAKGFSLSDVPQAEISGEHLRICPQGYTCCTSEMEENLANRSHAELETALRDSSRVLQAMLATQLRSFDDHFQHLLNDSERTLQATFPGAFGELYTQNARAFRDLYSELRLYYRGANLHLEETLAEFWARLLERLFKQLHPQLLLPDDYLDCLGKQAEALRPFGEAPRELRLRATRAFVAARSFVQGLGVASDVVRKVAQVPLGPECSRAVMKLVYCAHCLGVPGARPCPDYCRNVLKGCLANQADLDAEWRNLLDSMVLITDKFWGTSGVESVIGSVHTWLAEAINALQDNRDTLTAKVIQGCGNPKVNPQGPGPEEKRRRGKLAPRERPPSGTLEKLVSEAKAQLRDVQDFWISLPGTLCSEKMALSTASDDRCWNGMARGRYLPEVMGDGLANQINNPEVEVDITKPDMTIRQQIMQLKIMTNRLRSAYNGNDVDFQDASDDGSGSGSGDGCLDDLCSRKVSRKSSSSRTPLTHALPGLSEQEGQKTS


Experiments:
GPC1-hFc = target: T1, GPC1-hFc; assay: flow cytometry, hFc-tagged protein on CAR-expressing Jurkat cells
Protocol: To test antigen specificity and cell binding capacity of the engineered GPC3-targeted CARs, T cell lines (Jurkat) transfected with the CAR constructs were developed and binding to GPC3 tagged with human Fc (GPC3-hFc) was assessed. First, successful transduction (95-98%) of all of the CAR constructs was confirmed using the truncated EGFR marker expressed by the CAR lentivirus. […] All CAR T cells specifically bound to GPC3-hFc (FIG. 1A) and not GPC1-hFc (FIG. 1B) at the same concentrations.

[1] = target: glypican-3 (GPC3) on HCC cell lines Hep3B, Huh7 and HepG2 (human, UniProt P51654 25-580); assay: cell-based or functional assay
Sequence of glypican-3 (GPC3) on HCC cell lines Hep3B, Huh7 and HepG2 (P51654 25-580): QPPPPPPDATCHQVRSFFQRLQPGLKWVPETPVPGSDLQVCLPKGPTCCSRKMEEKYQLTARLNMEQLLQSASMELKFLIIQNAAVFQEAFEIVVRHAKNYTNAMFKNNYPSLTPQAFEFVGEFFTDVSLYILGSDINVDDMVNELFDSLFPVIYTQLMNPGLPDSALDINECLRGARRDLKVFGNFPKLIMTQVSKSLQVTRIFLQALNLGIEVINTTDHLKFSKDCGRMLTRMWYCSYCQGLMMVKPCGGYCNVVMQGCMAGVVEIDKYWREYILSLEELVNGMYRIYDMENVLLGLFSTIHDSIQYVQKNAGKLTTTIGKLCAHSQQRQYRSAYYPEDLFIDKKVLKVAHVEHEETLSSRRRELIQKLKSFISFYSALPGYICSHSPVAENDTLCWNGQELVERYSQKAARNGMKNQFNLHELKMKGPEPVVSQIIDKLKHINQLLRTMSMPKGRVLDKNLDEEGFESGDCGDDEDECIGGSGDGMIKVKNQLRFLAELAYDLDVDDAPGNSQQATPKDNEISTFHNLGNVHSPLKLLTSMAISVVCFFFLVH

Binder	binding result (GPC1-hFc)	potency (killing) relative to HN3-CD8H-CD28TM [1]	killing relative to HN3-CD8H-CD8TM CAR T cells [1]
HN3-IgG4H-CD28TM CAR (other, also called HN3-IgG4-CD28TM; HN3-IgGH-CD28TM) HMQVQLVQSGGGLVQPGGSLRLSCAASYFDFDSYEMSWVRQAPGKGLEWIGSIYHSGSTYYNPSLKSRVTISRDNSKNTLYLQMNTLRAEDTATYYCARVNMDRFDYWGQGTLVTVSSTSESKYGPPCPPCPFWVLVVVGGVLACYSLLVTVAFIIFWVKRGRKKLLYIFKQPFMRPVQTTQEEDGCSCRFPEEEEGGCELRVKFSRSADAPAYQQGQNQLYNELNLGRREEYDVLDKRRGRDPEMGGKPRRKNPQEGLYNELQKDKMAEAYSEIGMKGERRRGKGHDGLYQGLSTATKDTYDALHMQALPPR	no binding (tested: 1, 2 and 5 µg/mL)	10 to 20%	–
HN3-IgG4H-CD8TM CAR (other) HMQVQLVQSGGGLVQPGGSLRLSCAASYFDFDSYEMSWVRQAPGKGLEWIGSIYHSGSTYYNPSLKSRVTISRDNSKNTLYLQMNTLRAEDTATYYCARVNMDRFDYWGQGTLVTVSSTSESKYGPPCPPCPIYIWAPLAGTCGVLLLSLVITKRGRKKLLYIFKQPFMRPVQTTQEEDGCSCRFPEEEEGGCELRVKFSRSADAPAYQQGQNQLYNELNLGRREEYDVLDKRRGRDPEMGGKPRRKNPQEGLYNELQKDKMAEAYSEIGMKGERRRGKGHDGLYQGLSTATKDTYDALHMQALPPR	no binding (tested: 1, 2 and 5 µg/mL)	–	–
HN3-CD8H-CD28TM CAR (other) HMQVQLVQSGGGLVQPGGSLRLSCAASYFDFDSYEMSWVRQAPGKGLEWIGSIYHSGSTYYNPSLKSRVTISRDNSKNTLYLQMNTLRAEDTATYYCARVNMDRFDYWGQGTLVTVSSTSTTTPAPRPPTPAPTIASQPLSLRPEACRPAAGGAVHTRGLDFACDFWVLVVVGGVLACYSLLVTVAFIIFWVKRGRKKLLYIFKQPFMRPVQTTQEEDGCSCRFPEEEEGGCELRVKFSRSADAPAYQQGQNQLYNELNLGRREEYDVLDKRRGRDPEMGGKPRRKNPQEGLYNELQKDKMAEAYSEIGMKGERRRGKGHDGLYQGLSTATKDTYDALHMQALPPR	no binding (tested: 1, 2 and 5 µg/mL)	–	40%
hYP7-CD8H-CD8TM CAR (other) HMEVQLVESGGGLVQPGGSLRLSCAASGFTFNKNAMNWVRQAPGKGLEWVGRIRNKTNNYATYYADSVKARFTISRDDSKNSLYLQMNSLKTEDTAVYYCVAGNSFAYWGQGTLVTVSAGGGGSGGGGSGGGGSDIVMTQSPDSLAVSLGERATINCKSSQSLLYSSNQKNYLAWYQQKPGQPPKLLIYWASSRESGVPDRFSGSGSGTDFTLTISSLQAEDVAVYYCQQYYNYPLTFGQGTKLEIKTSTTTPAPRPPTPAPTIASQPLSLRPEACRPAAGGAVHTRGLDFACDIYIWAPLAGTCGVLLLSLVITKRGRKKLLYIFKQPFMRPVQTTQEEDGCSCRFPEEEEGGCELRVKFSRSADAPAYQQGQNQLYNELNLGRREEYDVLDKRRGRDPEMGGKPRRKNPQEGLYNELQKDKMAEAYSEIGMKGERRRGKGHDGLYQGLSTATKDTYDALHMQALPPR	no binding (tested: 1, 2 and 5 µg/mL)	–	–
